Test results published in PMC4595758, “Redox-switch regulatory mechanism of thiolase from Clostridium acetobutylicum” (Nature Communications, 2015).

Columns and labels:
[1] = biological target: the molecule itself; assay: crystal structure; oxidized form of CaTHL, 1.77 Å, space group P2(1)2(1)2, two molecules per asymmetric unit, tetramer generated by crystallographic symmetry; crystals from 100 mM phosphate-citrate pH 4.2, 10% PEG 3,350, 200 mM sodium chloride at 293 K
[2] = biological target: the molecule itself; assay: crystal structure; CaTHL C378S (reduced form, 10 mM DTT) crystals soaked with 30 mM CoA for 30 min, 1.90 Å, space group P2(1)2(1)2

B1: Clostridium acetobutylicum thiolase (CaTHL), wild type, oxidized form (enzyme, UniProt P45359 1-392, looked up)
chain: MKEVVIASAVRTAIGSYGKSLKDVPAVDLGATAIKEAVKKAGIKPEDVNEVILGNVLQAGLGQNPARQASFKAGLPVEIPAMTINKVCGSGLRTVSLAAQIIKAGDADVIIAGGMENMSRAPYLANNARWGYRMGNAKFVDEMITDGLWDAFNDYHMGITAENIAERWNISREEQDEFALASQKKAEEAIKSGQFKDEIVPVVIKGRKGETVVDTDEHPRFGSTIEGLAKLKPAFKKDGTVTAGNASGLNDCAAVLVIMSAEKAKELGVKPLAKIVSYGSAGVDPAIMGYGPFYATKAAIEKAGWTVDELDLIESNEAFAAQSLAVAKDLKFDMNKVNVNGGAIALGHPIGASGARILVTLVHAMQKRDAKKGLATLCIGGGQGTAILLEKC
notes: Thiolase (acetyl-CoA acetyltransferase) of Clostridium acetobutylicum, amino acid residues 1-392, amplified from the chromosome and cloned into pET30a; In the crystal (oxidized form) a disulfide bond joins Cys88 and Cys378, and residues 280-292 are disordered; Two molecules per asymmetric unit; the tetramer is generated by crystallographic symmetry; also called C. acetobutylicum thiolase; type II …
In the case of B1, the “stoichiometry N” value [1] is reported as 4.

B2: Clostridium acetobutylicum thiolase C378S mutant (reduced form of CaTHL) (enzyme, UniProt P45359 1-392, looked up)
chain: MKEVVIASAVRTAIGSYGKSLKDVPAVDLGATAIKEAVKKAGIKPEDVNEVILGNVLQAGLGQNPARQASFKAGLPVEIPAMTINKVCGSGLRTVSLAAQIIKAGDADVIIAGGMENMSRAPYLANNARWGYRMGNAKFVDEMITDGLWDAFNDYHMGITAENIAERWNISREEQDEFALASQKKAEEAIKSGQFKDEIVPVVIKGRKGETVVDTDEHPRFGSTIEGLAKLKPAFKKDGTVTAGNASGLNDCAAVLVIMSAEKAKELGVKPLAKIVSYGSAGVDPAIMGYGPFYATKAAIEKAGWTVDELDLIESNEAFAAQSLAVAKDLKFDMNKVNVNGGAIALGHPIGASGARILVTLVHAMQKRDAKKGLATLSIGGGQGTAILLEKC
notes: Thiolase (acetyl-CoA acetyltransferase) of Clostridium acetobutylicum, amino acid residues 1-392, with the C378S mutation made by site-directed mutagenesis; Crystallized with 10 mM DTT; For the CoA complex the crystals were soaked with 30 mM CoA for 30 min; also called CaTHL C378S mutant
B2: binds [2].
